Here are results for 1 molecule from US20090117108A1 (published 2009).

For test [1], the target named is T1, rhCD28-FC chimera (R&D) (human (printed as 'rh'), UniProt P10747 19-152).
T1 construct: Bought from R&D; Fc part of the bought chimera not given
Put plainly: ELISA, rhCD28-FC chimera coated at 1 ug/ml, CEA-scTsAb diluted from 10 ug/ml, detected by anti-c-myc antibody.

Test [2] has as its target T2, purified CEA (carcinoembryonic antigen) (UniProt P06731 35-685, limits assumed).
T2 construct: Bought antigen; also called purified CEA (Fitzerald, German); purified CEA(R&D)
T2 sequence (looked up): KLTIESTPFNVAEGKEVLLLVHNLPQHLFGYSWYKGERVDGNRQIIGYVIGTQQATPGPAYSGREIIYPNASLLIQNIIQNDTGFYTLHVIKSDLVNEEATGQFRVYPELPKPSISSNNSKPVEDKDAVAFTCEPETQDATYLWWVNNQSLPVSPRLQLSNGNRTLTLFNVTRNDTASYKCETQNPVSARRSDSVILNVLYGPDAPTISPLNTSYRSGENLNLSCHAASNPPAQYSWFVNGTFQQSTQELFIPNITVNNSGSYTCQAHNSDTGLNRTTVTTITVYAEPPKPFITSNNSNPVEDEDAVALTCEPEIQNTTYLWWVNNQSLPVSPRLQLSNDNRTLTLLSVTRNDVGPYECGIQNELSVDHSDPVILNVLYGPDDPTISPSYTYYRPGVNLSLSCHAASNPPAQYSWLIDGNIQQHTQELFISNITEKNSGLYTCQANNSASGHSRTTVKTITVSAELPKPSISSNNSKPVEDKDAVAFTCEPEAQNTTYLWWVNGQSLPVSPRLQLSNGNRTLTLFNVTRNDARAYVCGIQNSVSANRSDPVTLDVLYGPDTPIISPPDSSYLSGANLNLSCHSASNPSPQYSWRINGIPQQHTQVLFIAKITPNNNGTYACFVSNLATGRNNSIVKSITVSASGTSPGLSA
The test is described as follows: ELISA, CEA coated at 1 ug/ml, CEA-scTsAb diluted from 10 ug/ml, detected by anti-c-myc antibody.

T1 sequence (P10747 19-152, change not shown): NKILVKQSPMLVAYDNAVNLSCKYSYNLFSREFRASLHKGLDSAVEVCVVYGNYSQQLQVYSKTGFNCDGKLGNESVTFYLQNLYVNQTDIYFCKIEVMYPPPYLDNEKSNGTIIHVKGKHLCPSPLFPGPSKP

B1: recombinant anti-CEA/CD3/CD28 single-chain tri-specific antibody CEA-scTsAb (other)
chain: MGLEQVQLQQSGAELMKPGASVKISCKATGYTFSDYWIEWVKQRPGHGLEWIGEILPGSGRTDYNERFKGKATFTGDVSSNTAYMKLSSLTSEDSAVYYCATGTTPFGYWGQGTLVTVSATSTPSHNSHQVPSAGGPTANSGSRDIVLTQSPASLAVSLGQRATISCRASQSVSTSSYTYMHWYQQKPGQPPKLLIKYASNLESGVPARFSGSGSGTDFTLNIHPVEEEDTAYYYCQHSWEIPRTFGGGTKLEIKEFNSTYRVVSVLTVLHQDWLNGKEYKCKSTEVKLVESGPELVKPGASMKISCKASGYSFTGYTMNWVKQSHGKNLEWMGLINPYKGVSTYNQKFKDKATLTVDKSSSTAYMELLSLTSEDSAVYYCARSGYYGDSDWYFDVWGAGTSVTVSSTSGGGGSGGGGSGGGGSSRDIQMTQTTSSLSASLGDRVTISCRASQDIRNYLNWYQQKPDGTVKLLIYYTSRLHSGVPSKFSGSGSGTDYSLTISNLEQEDIATYFCQQGNTLPWTFAGGTKLELKRAVDFQNALLVRYTKKVPQVSTPTPVEVSHMQVQLQESGPGLVKPSQTLSLTCTVSGFSLSDYGVHWVRQPPGKGLECLGVIWGGGTNYNSALMSRRVTSSDDTSKNQFSLKLSSVDTAVYYCARSYYYSMDYWGQGTLVTVSSGTEQKLISEEDLNGAAHHHHHHEQ
notes: Single linear tri-specific antibody expressed solubly in the E. coli cytoplasm and purified by DEAE flow-through to about 70-75% purity; also called anti-CEA/CD3/CD28 scTsAb
Turning to B1, the binding result in test [1] and in test [2] was “binds” in each case.
